These results are taken from patent US20210246204A1 (Alector, published 2021).

Experiment [1] has as its target T1, histidine-tagged human Siglec-7 (NovoProtein) (human, UniProt Q9Y286 19-353).
T1 construct: Bought protein; also called recombinant human Siglec-7; recombinant Siglec-7; not shown: histidine tag
The experiment can be described thus: BLI, antibody captured. The method in brief:
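Antibodies captured on anti-human or anti-mouse IgG Fc biosensors; His-tagged human Siglec-7 flowed at 0–100 nM (200 s association, 900 s dissociation). ka and kd from 1:1 multi-concentration fit; apparent KD = kd/ka.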
(In general: In BLI a coated tip is dipped into the sample, and binding shifts an interference pattern.)

Experiment [2] concerns the target human Siglec-7 on primary human monocyte-derived dendritic cells (human, UniProt Q9Y286 19-467). The experiment can be described thus: cell-based or functional assay.

human Siglec-7 on primary human monocyte-derived dendritic cells, sequence (Q9Y286 19-467): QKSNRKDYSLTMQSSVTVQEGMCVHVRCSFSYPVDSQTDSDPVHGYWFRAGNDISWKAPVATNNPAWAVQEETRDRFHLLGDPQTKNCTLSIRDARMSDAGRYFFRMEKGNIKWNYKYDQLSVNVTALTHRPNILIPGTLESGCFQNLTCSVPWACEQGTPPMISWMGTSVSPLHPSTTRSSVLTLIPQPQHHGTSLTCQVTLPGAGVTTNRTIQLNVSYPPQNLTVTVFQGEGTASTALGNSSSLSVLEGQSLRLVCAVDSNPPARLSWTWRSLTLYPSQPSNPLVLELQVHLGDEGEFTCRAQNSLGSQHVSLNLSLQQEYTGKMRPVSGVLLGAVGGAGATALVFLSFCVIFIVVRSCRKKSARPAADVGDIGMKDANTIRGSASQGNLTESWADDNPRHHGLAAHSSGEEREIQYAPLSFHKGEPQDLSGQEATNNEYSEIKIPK
T1 sequence (Q9Y286 19-353 limits assumed): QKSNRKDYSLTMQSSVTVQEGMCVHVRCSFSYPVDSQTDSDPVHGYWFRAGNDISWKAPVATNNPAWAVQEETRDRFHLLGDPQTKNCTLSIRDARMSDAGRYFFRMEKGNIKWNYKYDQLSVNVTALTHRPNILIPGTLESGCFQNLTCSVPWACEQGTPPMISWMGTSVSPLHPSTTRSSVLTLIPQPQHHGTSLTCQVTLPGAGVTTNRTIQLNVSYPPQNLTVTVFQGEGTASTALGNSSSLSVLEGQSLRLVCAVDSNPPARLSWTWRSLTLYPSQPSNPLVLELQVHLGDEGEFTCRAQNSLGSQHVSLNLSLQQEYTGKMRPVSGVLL

B1: S7AB-H8.33 (antibody, V domains shown)
VH: QVQLVQSGAEVKKPGASVKVSCKASGYAFTGYWMNWVRQAPGQGLEWIGRIFPGLGHTNYAQKFQGRATLTEDTSTSTAYMELSSLRSEDTAVYYCARDYSDYYFDYWGQGTLVTVSS
VL: DIQMTQSPSSLSASVGDRVTITCRGSQDINTYLNWYQQKPGKAPKLLIYYTSRLHSGVPSRFSGSGSGTDYTLTISSLQPEDFATYYCQQGGTLPWTFGQGTKLEIK
One may read the Kd as a measure of binding affinity in units of concentration. Read a low Kd as tighter binding. The koff is the first-order rate constant of dissociation. A high value points to a short-lived complex. For orientation: kon means the second-order rate constant of association. A higher kon goes with fast association. For B1, in experiment [1], the Kd was determined as 0.326 nM, the “fold improvement over S7AB-H8” value was determined as 3.2 fold, the koff worked out at 7.64e-05 s⁻¹ and the kon came to 235000 M⁻¹ s⁻¹. Also, in experiment [2], the “Fold increase in potency compared to AB-H8” value (from here on “Fold increase … to AB-H8”) turned out to be 5.2 fold; the “Fold increase in potency compared to Chimeric Ab” value (shortened to “Fold increase … to Chimeric Ab”) was 15.7 fold; the “Maximal downregulation (% Siglec-7 remaining)” value came out at 17.2%; the “Receptor downregulation, (EC50) (pM)” value stood at 65.3 pM.

B2: S7AB-H8.35 (antibody, V domains shown)
VH: QVQLVQSGAEVKKPGASVKVSCKASGYAFTEAWMNWVRQAPGQGLEWIGRIFPGYGHTNYAQKFQGRATLTEDTSTSTAYMELSSLRSEDTAVYYCARDYSDYYFDYWGQGTLVTVSS
VL: DIQMTQSPSSLSASVGDRVTITCRGSQDINTYLNWYQQKPGKAPKLLIYYTSRLHSGVPSRFSGSGSGTDYTLTISSLQPEDFATYYCQQGGTLPWTFGQGTKLEIK
B2: in experiment [1], binding was characterised by a dissociation constant (Kd) of 0.607 nM, the “fold improvement over S7AB-H8” value worked out at 1.7 fold, the koff turned out to be 6.57e-05 s⁻¹ and the kon came out at 108000 M⁻¹ s⁻¹. In experiment [2], the “Fold increase … to AB-H8” value worked out at 1.6 fold; the “Fold increase … to Chimeric Ab” value turned out to be 5 fold; the “Maximal downregulation (% Siglec-7 remaining)” value was 9.3%; the “Receptor downregulation, (EC50) (pM)” value came to 206 pM.

B3: S7AB-H8.36 (antibody, V domains shown)
VH: QVQLVQSGAEVKKPGASVKVSCKASGYAFTETWMNWVRQAPGQGLEWIGRIFPGLGHTNYAQKFQGRATLTEDTSTSTAYMELSSLRSEDTAVYYCARDYSDYYFDYWGQGTLVTVSS
VL: DIQMTQSPSSLSASVGDRVTITCRGSQDINTYLNWYQQKPGKAPKLLIYYTSRLHSGVPSRFSGSGSGTDYTLTISSLQPEDFATYYCQQGNVLPWTFGQGTKLEIK
With B3, in experiment [1], the Kd is 0.605 nM, the “fold improvement over S7AB-H8” value amounted to 1.7 fold, the koff was 9.81e-05 s⁻¹ and the kon is 162000 M⁻¹ s⁻¹. In experiment [2], the “Fold increase … to AB-H8” value is 2.7 fold; the “Fold increase … to Chimeric Ab” value was 8.2 fold; the “Maximal downregulation (% Siglec-7 remaining)” value was 11.4%; the “Receptor downregulation, (EC50) (pM)” value is 125 pM.

B4: S7AB-H8.37 (antibody, V domains shown)
VH: QVQLVQSGAEVKKPGASVKVSCKASGYAFTMAWMNWVRQAPGQGLEWIGRIFPGYGHTNYAQKFQGRATLTEDTSTSTAYMELSSLRSEDTAVYYCARDYSDYYFDYWGQGTLVTVSS
VL: DIQMTQSPSSLSASVGDRVTITCRGSQDINTYLNWYQQKPGKAPKLLIYYTSRLHSGVPSRFSGSGSGTDYTLTISSLQPEDFATYYCQQGNVLPWTFGQGTKLEIK
For the molecule B4, in experiment [1], the Kd was 0.135 nM, the “fold improvement over S7AB-H8” value came out at 7.8 fold, the koff worked out at 2.5e-05 s⁻¹ and the kon was determined as 186000 M⁻¹ s⁻¹. Besides, in experiment [2], the “Fold increase … to AB-H8” value is 4.8 fold; the “Fold increase … to Chimeric Ab” value stood at 14.3 fold; the “Maximal downregulation (% Siglec-7 remaining)” value worked out at 3.4%; the “Receptor downregulation, (EC50) (pM)” value worked out at 71.4 pM.

B5: S7AB-H8.34 (antibody, V domains shown)
VH: QVQLVQSGAEVKKPGASVKVSCKASGYAFTAAWMNWVRQAPGQGLEWIGRIFPGLGHTNYAQKFQGRATLTEDTSTSTAYMELSSLRSEDTAVYYCARDYSDYYFDYWGQGTLVTVSS
VL: DIQMTQSPSSLSASVGDRVTITCRGSQDINTYLNWYQQKPGKAPKLLIYYTSRLHSGVPSRFSGSGSGTDYTLTISSLQPEDFATYYCQQGGTLPWTFGQGTKLEIK
In the case of B5, in experiment [1], the Kd amounted to 0.237 nM, the “fold improvement over S7AB-H8” value was found to be 4.4 fold, the koff was found to be 2.81e-05 s⁻¹ and the kon worked out at 119000 M⁻¹ s⁻¹. In experiment [2], the “Fold increase … to AB-H8” value came to 2.9 fold; the “Fold increase … to Chimeric Ab” value is 8.7 fold; the “Maximal downregulation (% Siglec-7 remaining)” value was 3.6%; the “Receptor downregulation, (EC50) (pM)” value amounted to 118 pM.
